Results from patent US20200283502A1 (PEPTICOM LTD., priority 2017, published 2020).
Where a SMILES comes first, the peptide text is derived from it. Where no end group is shown, it is not given here. [ ]: non-standard residue; d: D form. His(π-Me) = Cn1cncc1C[C@H](N)C(=O)O; NMeT = CN[C@H](C(=O)O)[C@@H](C)O; Cha = N[C@@H](CC1CCCCC1)C(=O)O

Biological target: T1, human GABA receptor (subunits α1β3γ2) (Homo sapiens, UniProt P14867+P28472)
T1 construct: expressed in transfected cells; host or cells: HEK293
T1 sequence (P14867 28-456): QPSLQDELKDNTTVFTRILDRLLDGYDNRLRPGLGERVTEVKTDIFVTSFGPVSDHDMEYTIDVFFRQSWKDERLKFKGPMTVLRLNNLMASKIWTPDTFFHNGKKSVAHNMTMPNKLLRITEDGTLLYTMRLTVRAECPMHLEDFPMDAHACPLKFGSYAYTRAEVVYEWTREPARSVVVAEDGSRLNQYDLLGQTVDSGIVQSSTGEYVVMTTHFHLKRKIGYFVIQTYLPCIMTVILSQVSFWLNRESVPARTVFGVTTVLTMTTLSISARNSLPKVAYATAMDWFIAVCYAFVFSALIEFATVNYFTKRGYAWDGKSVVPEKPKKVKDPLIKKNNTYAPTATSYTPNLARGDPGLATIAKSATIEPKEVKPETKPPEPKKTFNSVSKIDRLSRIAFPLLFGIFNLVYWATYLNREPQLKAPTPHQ
T1 sequence (P28472 26-473): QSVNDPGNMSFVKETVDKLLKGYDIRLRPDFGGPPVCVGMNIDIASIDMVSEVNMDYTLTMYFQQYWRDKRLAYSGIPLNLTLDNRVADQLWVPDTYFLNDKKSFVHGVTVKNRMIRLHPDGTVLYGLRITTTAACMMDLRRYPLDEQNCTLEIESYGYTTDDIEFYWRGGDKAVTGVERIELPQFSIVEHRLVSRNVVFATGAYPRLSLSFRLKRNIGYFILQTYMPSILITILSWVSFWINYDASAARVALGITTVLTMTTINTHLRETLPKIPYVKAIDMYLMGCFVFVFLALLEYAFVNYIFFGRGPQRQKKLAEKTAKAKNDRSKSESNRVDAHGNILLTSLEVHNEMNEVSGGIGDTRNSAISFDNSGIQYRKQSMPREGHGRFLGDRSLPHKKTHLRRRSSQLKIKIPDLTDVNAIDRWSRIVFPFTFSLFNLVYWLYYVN
T1 sequence (P18507 40-475 partner): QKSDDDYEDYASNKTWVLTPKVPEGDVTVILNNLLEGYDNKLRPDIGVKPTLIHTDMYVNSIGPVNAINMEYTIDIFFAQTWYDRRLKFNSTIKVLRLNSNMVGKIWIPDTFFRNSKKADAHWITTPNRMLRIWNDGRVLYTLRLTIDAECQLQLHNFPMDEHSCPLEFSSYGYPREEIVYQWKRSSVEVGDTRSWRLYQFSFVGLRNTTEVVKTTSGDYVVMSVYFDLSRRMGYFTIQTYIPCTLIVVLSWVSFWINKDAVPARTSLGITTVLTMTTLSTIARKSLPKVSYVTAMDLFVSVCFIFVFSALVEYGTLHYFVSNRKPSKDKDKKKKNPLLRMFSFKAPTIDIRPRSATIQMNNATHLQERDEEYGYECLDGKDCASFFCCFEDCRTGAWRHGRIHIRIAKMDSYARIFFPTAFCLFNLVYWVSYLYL
Assay: manual whole-cell patch-clamp of GABA receptor-mediated Cl− current in HEK293 cells
Type: cell-based
Details: for Activity: human α1β3γ2 GABAA receptor, electrophysiological recordings; for potentiation of human GABA receptor-mediated Cl− current: receptor expressed in HEK293 cells, manual whole-cell patch-clamp
Experimental: All the compounds of the present invention were tested and validated using electrophysiological recordings on the human GABAA receptor comprising of the following subunits α1β3γ2.
The peptides of the present invention are capable of activating, inhibiting or modulating the GABAA receptor. These peptides were derived in-silico and tested in-vitro in cell cultures. […] The human GABA receptor (subunits α1β3γ2) used in these experiments was expressed in HEK293 cells in manual whole-cell patch-clamp settings.

Row | Compound | Activity | potentiation of human GABA receptor-mediated Cl− current
1 | His—Thr—Trp—Gln—Glu (HTWQE; printed: His—Thr—Trp—Gln—Glu) [SEQ ID NO:1] | Positive allosteric modulator | selective potentiation
2 | His—Thr—Thr—Gly—Asp (HTTGD; printed: His—Thr—Thr—Gly—Asp) [SEQ ID NO:12] | Positive allosteric modulator | selective potentiation
3 | His—Ile—Ser—NH2 [SEQ ID NO:9] | Positive allosteric modulator | selective potentiation
4 | C[C@@H](O)[C@H](NC(=O)[C@@H](N)CC1CCCCC1)C(=O)N[C@@H](Cc1c[nH]c2ccccc12)C(=O)N[C@@H](CCC(N)=O)C(=O)N[C@H](C=O)CCC(=O)O [SEQ ID NO:2, (L-cyclohexyl-alanine)- TWQE] (H-[Cha]TWQE-aldehyde) | Positive allosteric modulator | selective potentiation
5 | His—Thr—Trp—Lys—Lys (HTWKK; printed: His—Thr—Trp—Lys—Lys) [SEQ ID NO:6] | Positive allosteric modulator | selective potentiation
6 | Arg—Phe—His—Ser (RFHS; printed: Arg—Phe—His—Ser) [SEQ ID NO:10] | Positive allosteric modulator | selective potentiation
7 | Thr—Glu—Ser—Lys—Gly—NH2 (TESKG-NH2) [SEQ ID NO:11] | Positive allosteric modulator | selective potentiation
8 | His—Pro—Pro—Ala—Thr (HPPAT; printed: His—Pro—Pro—Ala—Thr) [SEQ ID NO:8] | Positive allosteric modulator | selective potentiation
9 | C[C@@H](O)[C@@H](C(=O)N[C@H](Cc1c[nH]c2ccccc12)C(=O)N[C@@H](CCC(N)=O)C(=O)N[C@H](C=O)CCC(=O)O)N(C)C(=O)[C@@H](N)Cc1cncn1C [SEQ ID NO:4, (3-methyl-L-histidine)-(N-methyl-threonine)-(N-methyl-tryptophan)-QE] (H-[His(π-Me)][NMeT][dW]QE-aldehyde) | Positive allosteric modulator | selective potentiation
10 | C[C@@H](O)[C@@H](C(=O)N[C@@H](Cc1c[nH]c2ccccc12)C(=O)N[C@@H](CCC(N)=O)C(=O)N[C@H](C=O)CCC(=O)O)N(C)C(=O)[C@@H](N)Cc1cncn1C [SEQ ID NO:3, (3-methyl-L-histidine)-(N-methyl-threonine)-WQE] (H-[His(π-Me)][NMeT]WQE-aldehyde) | Positive allosteric modulator | selective potentiation
11 | Arg—Thr—Trp—Gly—Glu (RTWGE; printed: Arg—Thr—Trp—Gly—Glu) [SEQ ID NO:13] |  | selective potentiation
12 | His—Thr—Trp—Pro (HTWP; printed: His—Thr—Trp—Pro) [SEQ ID NO:14] | Positive allosteric modulator | selective potentiation
13 | His—Pro—Trp—Gln (HPWQ; printed: His—Pro—Trp—Gln) [SEQ ID NO:15] | Positive allosteric modulator | selective potentiation
14 | His—Thr—Trp—Tyr—Glu (HTWYE; printed: His—Thr—Trp—Tyr—Glu) [SEQ ID NO:7] | Positive allosteric modulator | selective potentiation
